US20220089698A1 (published 2022)

Key:
[1] = target: HIV gp120 CAAN (HIV); test: single-point ELISA; further: test concentration or dose not given here
[2] = target: HIV gp120 Bal (HIV); test: single-point ELISA; further: test concentration or dose not given here

| Binder | ELISA (A450) [1] [A450] | ELISA (A450) [2] [A450] |
| --- | --- | --- |
| 1.24.1-1 (antibody, human IgG1, kappa) heavy: QVQLLQSGAAVTKPGASVRVSCEASGYNIRDYFIHWWRQAPGQGLQWVGWINPKTGQPNNPRQFQGRVSLTRHASWDFDTFSFSMDLKALRSDDTAVYFCARQRSDYWDFDVWGSGTQVTVSSASTKGPSVFPLAPSSKSTSGGTAALGCLVKDYFPEPVTVSWNSGALTSGVHTFPAVLQSSGLYSLSSVVTVPSSSLGTQTYICNVNHKPSNTKVDKKVEPKSCDKTHTCPPCPAPELLAGPDVFLFPPKPKDTLMISRTPEVTCVVVDVSHEDPEVKFNWYVDGVEVHNAKTKPREEQYNSTYRVVSVLTVLHQDWLNGKEYKCKVSNKALPLPEEKTISKAKGQPREPQVYTLPPSREEMTKNQVSLTCLVKGFYPSDIAVEWESNGQPENNYKTTPPVLDSDGSFFLYSKLTVDKSRWQQGNVFSCSVLHEALHSHYTQKSLSLSPGK light: DIQMTQSPSSLSASVGDTVTITCQANGYLNWYQQRRGKAPKLLIYDGSKLERGVPSRFSGRRWGQEYNLTINNLQPEDIATYFCQVYEFVVPGTRLDLKRTVAAPSVFIFPPSDEQLKSGTASVVCLLNNFYPREAKVQWKVDNALQSGNSQESVTEQDSKDSTYSLSSTLTLSKADYEKHKVYACEVTHQGLSSPVTKSFNRGEC | 0.9 | 0.98 |
| 1.1.3-1 (antibody, human IgG1, kappa) heavy: QVQLLQSGAAVTKPGASVRVSCEASGYNIRDYFIHWWRQAPGQGLQWVGWINPKTGQPNNPRQFQGRVSLTRHASWDFDTFSFYMDLKALRSDDTAVYFCARQRSDYWDFDVWGSGTQVTVSSASTKGPSVFPLAPSSKSTSGGTAALGCLVKDYFPEPVTVSWNSGALTSGVHTFPAVLQSSGLYSLSSVVTVPSSSLGTQTYICNVNHKPSNTKVDKKVEPKSCDKTHTCPPCPAPELLAGPDVFLFPPKPKDTLMISRTPEVTCVVVDVSHEDPEVKFNWYVDGVEVHNAKTKPREEQYNSTYRVVSVLTVLHQDWLNGKEYKCKVSNKALPLPEEKTISKAKGQPREPQVYTLPPSREEMTKNQVSLTCLVKGFYPSDIAVEWESNGQPENNYKTTPPVLDSDGSFFLYSKLTVDKSRWQQGNVFSCSVLHEALHSHYTQKSLSLSPGK light: EIQMTQSPSSLSASVGDTVTITCQANGYLNWYQQRRGKAPKLLIYDGSKLERGVPSRFSGRRWGQEYNLTINNLQPEDIATYFCQVYEFVVPGTRLDLKRTVAAPSVFIFPPSDEQLKSGTASVVCLLNNFYPREAKVQWKVDNALQSGNSQESVTEQDSKDSTYSLSSTLTLSKADYEKHKVYACEVTHQGLSSPVTKSFNRGEC | 1 | 0.97 |
| 1.25.1-1 (antibody, human IgG1, kappa) heavy: QVQLLQSGAAVTKPGASVRVSCEASGYNIRDYFIHWWRQAPGQGLQWVGWINPKTGQPNNPRQFQGRVSLTRHASWDFDTFSFYMDLSRLRSDDTAVYFCARQRSDYWDFDVWGSGTQVTVSSASTKGPSVFPLAPSSKSTSGGTAALGCLVKDYFPEPVTVSWNSGALTSGVHTFPAVLQSSGLYSLSSVVTVPSSSLGTQTYICNVNHKPSNTKVDKKVEPKSCDKTHTCPPCPAPELLAGPDVFLFPPKPKDTLMISRTPEVTCVVVDVSHEDPEVKFNWYVDGVEVHNAKTKPREEQYNSTYRVVSVLTVLHQDWLNGKEYKCKVSNKALPLPEEKTISKAKGQPREPQVYTLPPSREEMTKNQVSLTCLVKGFYPSDIAVEWESNGQPENNYKTTPPVLDSDGSFFLYSKLTVDKSRWQQGNVFSCSVLHEALHSHYTQKSLSLSPGK light: DIQMTQSPSSLSASVGDTVTITCQANGYLNWYQQRRGKAPKLLIYDGSKLERGVPSRFSGRRWGQEYNLTINNLQPEDIATYFCQVYEFVVPGTRLDLKRTVAAPSVFIFPPSDEQLKSGTASVVCLLNNFYPREAKVQWKVDNALQSGNSQESVTEQDSKDSTYSLSSTLTLSKADYEKHKVYACEVTHQGLSSPVTKSFNRGEC | 1.16 | 1.07 |
| 1.29.1-1 (antibody, human IgG1, kappa) heavy: QVQLLQSGAAVTKPGASVRVSCEASGYNIRDYFIHWWRQAPGQGLQWVGWINPKTGQPNNPRQFQGRVSLTRHASWDFDTFSFYMDLKALRSDDTAVYFCARQRSDYWDFDVWGQGTQVTVSSASTKGPSVFPLAPSSKSTSGGTAALGCLVKDYFPEPVTVSWNSGALTSGVHTFPAVLQSSGLYSLSSVVTVPSSSLGTQTYICNVNHKPSNTKVDKKVEPKSCDKTHTCPPCPAPELLAGPDVFLFPPKPKDTLMISRTPEVTCVVVDVSHEDPEVKFNWYVDGVEVHNAKTKPREEQYNSTYRVVSVLTVLHQDWLNGKEYKCKVSNKALPLPEEKTISKAKGQPREPQVYTLPPSREEMTKNQVSLTCLVKGFYPSDIAVEWESNGQPENNYKTTPPVLDSDGSFFLYSKLTVDKSRWQQGNVFSCSVLHEALHSHYTQKSLSLSPGK light: DIQMTQSPSSLSASVGDTVTITCQANGYLNWYQQRRGKAPKLLIYDGSKLERGVPSRFSGRRWGQEYNLTINNLQPEDIATYFCQVYEFVVPGTRLDLKRTVAAPSVFIFPPSDEQLKSGTASVVCLLNNFYPREAKVQWKVDNALQSGNSQESVTEQDSKDSTYSLSSTLTLSKADYEKHKVYACEVTHQGLSSPVTKSFNRGEC | 1.08 | 1.03 |
| 1.27.1-1 (antibody, human IgG1, kappa) heavy: QVQLLQSGAAVTKPGASVRVSCEASGYNIRDYFIHWWRQAPGQGLQWVGWINPKTGQPNNPRQFQGRVSLTRHASWDFDTFSFYMDLKALRSDDTAVYFCARQRTDYWDFDVWGSGTQVTVSSASTKGPSVFPLAPSSKSTSGGTAALGCLVKDYFPEPVTVSWNSGALTSGVHTFPAVLQSSGLYSLSSVVTVPSSSLGTQTYICNVNHKPSNTKVDKKVEPKSCDKTHTCPPCPAPELLAGPDVFLFPPKPKDTLMISRTPEVTCVVVDVSHEDPEVKFNWYVDGVEVHNAKTKPREEQYNSTYRVVSVLTVLHQDWLNGKEYKCKVSNKALPLPEEKTISKAKGQPREPQVYTLPPSREEMTKNQVSLTCLVKGFYPSDIAVEWESNGQPENNYKTTPPVLDSDGSFFLYSKLTVDKSRWQQGNVFSCSVLHEALHSHYTQKSLSLSPGK light: DIQMTQSPSSLSASVGDTVTITCQANGYLNWYQQRRGKAPKLLIYDGSKLERGVPSRFSGRRWGQEYNLTINNLQPEDIATYFCQVYEFVVPGTRLDLKRTVAAPSVFIFPPSDEQLKSGTASVVCLLNNFYPREAKVQWKVDNALQSGNSQESVTEQDSKDSTYSLSSTLTLSKADYEKHKVYACEVTHQGLSSPVTKSFNRGEC | 0.86 | 0.86 |
| 1.26.1-1 (antibody, human IgG1, kappa) heavy: QVQLLQSGAAVTKPGASVRVSCEASGYNIRDYFIHWWRQAPGQGLQWVGWINPKTGQPNNPRQFQGRVSLTRHASWDFDTFSFYMDLKALRSDDTATYFCARQRSDYWDFDVWGSGTQVTVSSASTKGPSVFPLAPSSKSTSGGTAALGCLVKDYFPEPVTVSWNSGALTSGVHTFPAVLQSSGLYSLSSVVTVPSSSLGTQTYICNVNHKPSNTKVDKKVEPKSCDKTHTCPPCPAPELLAGPDVFLFPPKPKDTLMISRTPEVTCVVVDVSHEDPEVKFNWYVDGVEVHNAKTKPREEQYNSTYRVVSVLTVLHQDWLNGKEYKCKVSNKALPLPEEKTISKAKGQPREPQVYTLPPSREEMTKNQVSLTCLVKGFYPSDIAVEWESNGQPENNYKTTPPVLDSDGSFFLYSKLTVDKSRWQQGNVFSCSVLHEALHSHYTQKSLSLSPGK light: DIQMTQSPSSLSASVGDTVTITCQANGYLNWYQQRRGKAPKLLIYDGSKLERGVPSRFSGRRWGQEYNLTINNLQPEDIATYFCQVYEFVVPGTRLDLKRTVAAPSVFIFPPSDEQLKSGTASVVCLLNNFYPREAKVQWKVDNALQSGNSQESVTEQDSKDSTYSLSSTLTLSKADYEKHKVYACEVTHQGLSSPVTKSFNRGEC | 1 | 0.81 |
| 1.30.1-1 (antibody, human IgG1, kappa) heavy: QVQLLQSGAAVTKPGASVRVSCEASGYNIRDYFIHWWRQAPGQGLQWVGWINPKTGQPNNPRQFQGRVSLTRHASWDFDTFSFYMDLKALRSDDTAVYFCARQRSDYWDFDVWGSGTMVTVSSASTKGPSVFPLAPSSKSTSGGTAALGCLVKDYFPEPVTVSWNSGALTSGVHTFPAVLQSSGLYSLSSVVTVPSSSLGTQTYICNVNHKPSNTKVDKKVEPKSCDKTHTCPPCPAPELLAGPDVFLFPPKPKDTLMISRTPEVTCVVVDVSHEDPEVKFNWYVDGVEVHNAKTKPREEQYNSTYRVVSVLTVLHQDWLNGKEYKCKVSNKALPLPEEKTISKAKGQPREPQVYTLPPSREEMTKNQVSLTCLVKGFYPSDIAVEWESNGQPENNYKTTPPVLDSDGSFFLYSKLTVDKSRWQQGNVFSCSVLHEALHSHYTQKSLSLSPGK light: DIQMTQSPSSLSASVGDTVTITCQANGYLNWYQQRRGKAPKLLIYDGSKLERGVPSRFSGRRWGQEYNLTINNLQPEDIATYFCQVYEFVVPGTRLDLKRTVAAPSVFIFPPSDEQLKSGTASVVCLLNNFYPREAKVQWKVDNALQSGNSQESVTEQDSKDSTYSLSSTLTLSKADYEKHKVYACEVTHQGLSSPVTKSFNRGEC | 1.05 | 0.81 |
| 1.28.1-1 (antibody, human IgG1, kappa) heavy: QVQLLQSGAAVTKPGASVRVSCEASGYNIRDYFIHWWRQAPGQGLQWVGWINPKTGQPNNPRQFQGRVSLTRHASWDFDTFSFYMDLKALRSDDTATYFCARQRTDYWDFDVWGSGTQVTVSSASTKGPSVFPLAPSSKSTSGGTAALGCLVKDYFPEPVTVSWNSGALTSGVHTFPAVLQSSGLYSLSSVVTVPSSSLGTQTYICNVNHKPSNTKVDKKVEPKSCDKTHTCPPCPAPELLAGPDVFLFPPKPKDTLMISRTPEVTCVVVDVSHEDPEVKFNWYVDGVEVHNAKTKPREEQYNSTYRVVSVLTVLHQDWLNGKEYKCKVSNKALPLPEEKTISKAKGQPREPQVYTLPPSREEMTKNQVSLTCLVKGFYPSDIAVEWESNGQPENNYKTTPPVLDSDGSFFLYSKLTVDKSRWQQGNVFSCSVLHEALHSHYTQKSLSLSPGK light: DIQMTQSPSSLSASVGDTVTITCQANGYLNWYQQRRGKAPKLLIYDGSKLERGVPSRFSGRRWGQEYNLTINNLQPEDIATYFCQVYEFVVPGTRLDLKRTVAAPSVFIFPPSDEQLKSGTASVVCLLNNFYPREAKVQWKVDNALQSGNSQESVTEQDSKDSTYSLSSTLTLSKADYEKHKVYACEVTHQGLSSPVTKSFNRGEC | 0.99 | 1.05 |
| 1.1.2-1 (antibody, human IgG1) heavy: QVQLLQSGAAVTKPGASVRVSCEASGYNIRDYFIHWWRQAPGQGLQWVGWINPKTGQPNNPRQFQGRVSLTRHASWDFDTFSFYMDLKALRSDDTAVYFCARQRSDYWDFDVWGSGTQVTVSSASTKGPSVFPLAPSSKSTSGGTAALGCLVKDYFPEPVTVSWNSGALTSGVHTFPAVLQSSGLYSLSSVVTVPSSSLGTQTYICNVNHKPSNTKVDKKVEPKSCDKTHTCPPCPAPELLAGPDVFLFPPKPKDTLMISRTPEVTCVVVDVSHEDPEVKFNWYVDGVEVHNAKTKPREEQYNSTYRVVSVLTVLHQDWLNGKEYKCKVSNKALPLPEEKTISKAKGQPREPQVYTLPPSREEMTKNQVSLTCLVKGFYPSDIAVEWESNGQPENNYKTTPPVLDSDGSFFLYSKLTVDKSRWQQGNVFSCSVLHEALHSHYTQKSLSLSPGK VL: DIQMTQSPSSLSASVGDTVTITCQANGYLNWYQQKPGKAPKLLIYDGSKLERGVPSRFSGRRWGQEYNLTINNLQPEDIATYFCQVYEFVVPGTKVDIK | 0.93 | 0.95 |
